# Where “and” joins values, the source holds several entries; their conditions need not be identical. Equal values may be shown once.
# B1: macrophage migration-inhibitory factor (MIF), recombinant human, unlabelled, P14174 1-115 (natural protein)
# chain: MPMFIVNTNVPRASVPDGFLSELTQQLAQATGKPPQYIAVHVVPDQLMAFGGSSEPCALCSLHSIGKIGGAQNRSYSKLLCGLLAERLRISPDRVYINYYDMNAANVGWNNSTFA
# modifications: here or on the partner: disulfide bridge from Cys-109 to Cys-186 of the ECL2 chain; C-terminal amide; Fluos (fluorescein) label, chain and position not stated | disulfide bridge from Cys-186 to Cys-109 of the ECL1 chain; C-terminal amide
# B2: macrophage migration-inhibitory factor (MIF), recombinant human, P14174 1-115 (natural protein)
# chain: B1 chain
# modifications: here or on the partner: disulfide bridge from Cys-109 to Cys-186 of the ECL2 chain; C-terminal amide; Fluos label on the molecule (chain and position not stated) | disulfide bridge from Cys-186 to Cys-109 of the ECL1 chain; C-terminal amide
# Tests used:
# [1] = target: Fluos-msR4M-LS (fluorescein-labelled ECL1[97–110] and ECL2[182–196] joined only by a disulfide bridge, no synthetic linker) (human), P61073; test: other fluorescence titration; Fluos-labelled CXCR4 ectodomain peptide at 5 nM titrated with unlabelled MIF, MIF(10xAla), CXCL12 or MIF peptide fragments; 10 mM sodium phosphate, pH 7.4, 1% HFIP; emission at 522 nm; apparent KD, 1/1 binding model; conditions: remark: other sources report otherwise
# [2] = target: Fluos-msR4M-LS (human), P61073; test: other fluorescence titration; 5 nM Fluos-labeled ectodomain peptide titrated with unlabeled MIF, MIF peptide or CXCL12; 10 mM sodium phosphate, pH 7.4, 1% HFIP; emission at 522 nm; apparent KD, 1/1 binding model; one constant for each of three curves; conditions: remark: other sources report otherwise
Binder,Kd [1] [nM],Kd [2]
B1,6.9,
B2,,9 nM and 5 nM

# Reference: article PMC7689490, “Designed CXCR4 mimic acts as a soluble chemokine receptor that blocks atherogenic inflammation by agonist-specific targeting” (Nature Communications, 2020)
